The target of experiment [1] is T1, Mortalin (UniProt P38646 47-679).
T1 construct: Endogenous protein from Jurkat cells (a human cell line); also called Glucose-regulated protein 75; GRP75
As to the kind of experiment: peptide pull-down from Jurkat cell lysate, Western blot. On the technique in general: A western blot detects proteins with antibodies after separation by electrophoresis.

The next experiment addresses T2, E. coli DnaK protein (Escherichia coli, UniProt P0A6Y8 2-638).
T2 construct: Endogenous protein from E. coli lysate; also called heat shock protein 70; Hsp70
As to the kind of experiment: ANTI-FLAG M2 pull-down from E. coli lysate, Western blot with anti-DnaK antibody.

The target of experiment [2] is T1, Mortalin. The experiment is described as follows: peptide pull-down from Jurkat cell lysate, Western blot with anti-mortalin antibody.

Two molecules from EP3801029B1 (Morehouse School of Medicine, dated 2024) can be followed below.

T1 sequence (P38646 47-679 limits assumed): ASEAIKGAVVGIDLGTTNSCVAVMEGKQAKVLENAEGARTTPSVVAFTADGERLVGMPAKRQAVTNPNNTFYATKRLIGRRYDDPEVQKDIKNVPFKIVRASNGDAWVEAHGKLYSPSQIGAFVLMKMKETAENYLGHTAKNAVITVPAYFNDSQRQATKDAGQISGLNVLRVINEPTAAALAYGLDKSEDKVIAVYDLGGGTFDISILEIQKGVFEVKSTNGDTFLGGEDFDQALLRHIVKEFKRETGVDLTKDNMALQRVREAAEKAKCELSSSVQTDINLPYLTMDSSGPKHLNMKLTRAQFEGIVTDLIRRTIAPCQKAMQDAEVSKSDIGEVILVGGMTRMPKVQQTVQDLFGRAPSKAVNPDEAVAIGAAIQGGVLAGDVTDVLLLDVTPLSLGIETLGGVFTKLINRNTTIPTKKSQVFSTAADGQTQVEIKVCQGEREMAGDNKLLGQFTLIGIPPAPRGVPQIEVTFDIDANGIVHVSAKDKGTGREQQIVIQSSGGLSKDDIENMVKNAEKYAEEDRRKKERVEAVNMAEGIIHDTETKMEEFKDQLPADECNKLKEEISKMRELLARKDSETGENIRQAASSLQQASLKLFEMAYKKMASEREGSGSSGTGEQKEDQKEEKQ
T2 sequence (P0A6Y8 2-638 limits assumed): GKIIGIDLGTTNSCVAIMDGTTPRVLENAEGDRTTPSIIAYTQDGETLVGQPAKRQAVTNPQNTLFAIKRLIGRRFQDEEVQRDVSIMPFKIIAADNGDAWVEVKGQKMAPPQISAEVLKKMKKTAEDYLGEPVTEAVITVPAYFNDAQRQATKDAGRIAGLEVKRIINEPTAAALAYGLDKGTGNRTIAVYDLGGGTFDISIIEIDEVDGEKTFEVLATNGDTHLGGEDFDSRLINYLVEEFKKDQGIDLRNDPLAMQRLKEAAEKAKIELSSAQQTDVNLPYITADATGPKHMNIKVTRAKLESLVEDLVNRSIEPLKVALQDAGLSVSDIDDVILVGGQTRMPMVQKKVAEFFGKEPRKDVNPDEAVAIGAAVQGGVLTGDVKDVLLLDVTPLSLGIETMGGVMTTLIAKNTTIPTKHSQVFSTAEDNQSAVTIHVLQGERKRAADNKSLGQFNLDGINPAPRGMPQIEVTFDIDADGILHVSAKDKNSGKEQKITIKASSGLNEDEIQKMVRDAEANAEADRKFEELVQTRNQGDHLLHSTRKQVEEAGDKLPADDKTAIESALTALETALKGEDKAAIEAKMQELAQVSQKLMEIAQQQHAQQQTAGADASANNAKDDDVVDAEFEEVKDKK

B1: synthetic HIV-1 Nef SMRwt peptide (VGFPVAAVGFPVDYKDDDDK) (peptide)
peptide: VGFPVAAVGFPVDYKDDDDK
notes: also called SMR peptide; antagonist
As for B1, the binding result with Mortalin [1] is given as “binds”.

B2: synthetic HIV-1 Nef SMRmut peptide (AGFPVAAAGFPVDYKDDDDK) (peptide)
peptide: AGFPVAAAGFPVDYKDDDDK
notes: also called negative control peptide; mutant SMR peptide
Regarding B2, the figures for the binding result in the experiment with E. coli DnaK protein and with Mortalin [2] were “no binding (tested: 1 µg peptide with 1 mg E. coli lysate)” and “no binding”, respectively.
